According to patent US20240109974A1 (SHANDONG SIMCERE BIOPHARMACEUTICAL, published 2024):
Residue numbers refer to the chain shown, from its start. Each block holds one binder with its values, some of them ahead of it.

How the values were obtained:
[1] = target: T1, Human TNFR2-His (Sino 10417-H08H) (human, UniProt P20333 23-257); assay: ELISA, human TNFR2-His coated
T1 construct: Bought protein; also called recombinant human TNFR2 protein; not shown: His tag
T1 sequence (looked up): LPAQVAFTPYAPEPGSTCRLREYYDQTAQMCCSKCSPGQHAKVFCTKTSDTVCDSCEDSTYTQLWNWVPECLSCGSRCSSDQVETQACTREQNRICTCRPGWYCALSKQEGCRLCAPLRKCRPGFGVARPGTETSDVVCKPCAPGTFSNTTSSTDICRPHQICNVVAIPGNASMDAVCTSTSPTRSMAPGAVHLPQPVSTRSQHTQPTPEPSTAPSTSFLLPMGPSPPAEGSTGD
Protocol: (§1) The test humanized antibody against TNFR2 (as described in Example 1, the antibody was comprised of variable regions linked to IgG-Fc; the WT chimeric antibody also adopted the IgG-Fc structure) was subjected to 3.33-fold gradient dilution, loaded with 100 μl/well, and incubated with shaking at room temperature for 1.5 hours. The plate was washed, and then a working solution of murine anti-human IgG Fc-HRP (diluted at 1:10000) was added, loaded with 100 μl/well, and incubated with shaking at room temperature for 1.0 hour. The plate was washed again, and then the substrate TMB of HRP was added to develop colour. A stop solution was added to stop the reaction, and then a microplate reader (MD 13) was used to read the absorbance value. The binding curve of an antibody was drawn with antibody concentration as the abscissa and corresponding OD value as the ordinate, and fitted with four parameters (GraphPad Prism9) to calculate the EC50 value. The smaller the EC50 value, the stronger the binding ability of an antibody to human/cynomolgus monkey TNFR2. The binding effect of a humanized antibody was normalized to its corresponding human-murine chimeric antibody WT (see SEQ ID NOs: 38-43 for the sequence). The higher the percentage value, the better the binding effect of the humanized antibody. The results of binding of an anti-TNFR2 antibody to a human TNFR2 protein are shown in FIG. 1 and Table 4, and the results of binding of an anti-TNFR2 antibody to cynomolgus monkey TNFR2 are shown in FIG. 2 and Table 4.

[2] = target: T2, Cynomolgus TNFR2-His (Sino 90102-C08H) (cynomolgus monkey, UniProt A0A2K5VET2 132-366); assay: ELISA, cynomolgus TNFR2-His coated
T2 construct: Bought protein; also called cynomolgus monkey TNFR2; recombinant cynomolgus monkey TNFR2 protein; not shown: His tag
T2 sequence: T1 sequence (looked up) with S16G, S36P, P117Q, N164H, E210A, S216G, M223V
Protocol: as §1

[3] = target: T1, Human TNFR2-His (Sino 10417-H08H); assay: SPR (Biacore T200), antibody captured on Protein A chip
Protocol: (§2) Biacore was used to detect the specific binding of a test anti-TNFR2 antibody to human and cynomolgus monkey TNFR2 proteins. In this experiment, a Protein A chip was used, the time required for the chip to capture the diluted antibody was determined by manual run, so that the Rmax of the saturated binding to an antigen was 50 RU. […] The affinity of an antibody for an antigen was determined by using multi-cycle dynamics. In each cycle, an antibody was injected and then a TNFR2 protein at a gradient concentration was injected, so that the antigen and the antibody underwent binding and dissociation processes. After each cycle, the Protein A chip was regenerated with Glycine pH 1.5 (removing the protein on the chip). The affinity KD of an antibody and an antigen was fitted with BIAcore T200 analysis software.

[4] = target: T2, Cynomolgus TNFR2-His (Sino 90102-C08H); assay: as above
Protocol: as §2

[5] = target: T3, human TNFR2 (Novoprotein, Cat #C830) (human, UniProt P20333 23-257, limits assumed); assay: competition ELISA, human TNFR2 coated, competitor human TNFα-Biotin
T3 construct: construct not described; also called human TNFR2 protein
T3 sequence (looked up): T1 sequence (looked up)
Protocol: (§3) 1 μg/ml human TNFR2 (Novoprotein, Cat #C830) was pre-coated with 100 μl/well […] in an ELISA plate. All the test TNFR2 antibodies were subjected to 2.5-fold gradient dilution from the highest concentration of 30 μg/ml; the diluted antibodies were mixed with 15 ng/ml human TNFα-Biotin (Acro Biosystem, Cat #TNA-H82E3) in equal volume, respectively; the resulting mixture was added to the ELISA plate at 100 μl/well, and incubated with shaking at room temperature for 2.0 hours. The plate was washed, and then a Streptavidin-HRP working solution (diluted at 1:10000) was added at 100 μl/well, and the mixture was incubated with shaking at room temperature for 40 minutes. The plate was washed again, and then the substrate TMB of HRP was added to develop colour. A stop solution was added to stop the reaction, and then a microplate reader (MD 13) was used to read the absorbance value. The inhibitory curve of an antibody was drawn with antibody concentration as the abscissa and corresponding OD value as the ordinate, and fitted with four parameters (GraphPad Prism9) to calculate the IC50 value. The smaller the IC50 value, the stronger the ability of an antibody to inhibit the binding of human TNFα to human TNFR2. The blocking effect of a humanized antibody was normalized to its corresponding human-murine chimeric antibody WT. The higher the percentage value, the better the inhibitory effect of the humanized antibody.

[6] = target: T3, human TNFR2 (Novoprotein, Cat #C830); assay: competition ELISA, competitor human TNFα-Biotin; area under the OD curve
Protocol: as §3

B1: 224-Hu1 (antibody, V domains shown)
VH: QVQLVQSGAEVKKPGASVKVSCKASGFNNKDIYMHWVRQAPGQGLEWIGRIDPATGNTKHDPKFQDRVTMTSDTSTNTVYMELSSLRSEDTAVYYCARSPYGDFGAMDYWGQGTLVTVSS
VL: DIQMTQSPSSLSASVGDRVTITCTASSSVSSNYLHWYQQKPGKAPKLWIYSTSNLPSGVPSRFSGSGSGTDFTLTISSLQPEDFATYYCHQYHRSPWTFGQGTKVEIK
notes: Humanized form of #224; also called VH8 + VL6
EC50 [1]: 0.0104 µg/mL
EC50 [2]: 0.00998 µg/mL
Kd [3]: 6.57 nM
koff [3]: 0.000766 s⁻¹
kon [3]: 117000 M⁻¹ s⁻¹
Kd [4]: 3.95 nM
koff [4]: 0.000953 s⁻¹
kon [4]: 241000 M⁻¹ s⁻¹
IC50 [5]: 0.441 µg/mL
AUC [6]: 7.12

B2: 224-Hu7 (antibody, V domains shown)
VH: QVQLVQSGSELKKPGASVKVSCKASGFNNKDIYMHWVRQAPGQGLEWMGRIDPATGNTKHDPKFQDKAVLSSDTSVSTAYLQISSLKAEDTAVYYCARSPYGDFGAMDYWGQGTLVTVSS
VL: B1 VL with W48L
notes: Humanized form of #224; also called VH9 + VL10
EC50 [1]: 0.0096 µg/mL
EC50 [2]: 0.00839 µg/mL
Kd [3]: 5.64 nM
koff [3]: 0.000815 s⁻¹
kon [3]: 145000 M⁻¹ s⁻¹
Kd [4]: 3.12 nM
koff [4]: 0.000991 s⁻¹
kon [4]: 318000 M⁻¹ s⁻¹
IC50 [5]: 0.561 µg/mL
AUC [6]: 7.44

B3: 224-Hu4 (antibody, V domains shown)
VH: B2 VH
VL: B1 VL
notes: Humanized form of #224; also called VH9 + VL6
EC50 [1]: 0.0107 µg/mL
EC50 [2]: 0.00956 µg/mL
Kd [3]: 5.59 nM
koff [3]: 0.00072 s⁻¹
kon [3]: 129000 M⁻¹ s⁻¹
Kd [4]: 3.17 nM
koff [4]: 0.000881 s⁻¹
kon [4]: 278000 M⁻¹ s⁻¹
IC50 [5]: 0.458 µg/mL
AUC [6]: 6.25

B5: 224-Hu5 (antibody, V domains shown)
VH: B2 VH
VL: B1 VL with W48L, F72Y, T73S
notes: Humanized form of #224; also called VH9 + VL9
EC50 [1]: 0.0116 µg/mL
EC50 [2]: 0.00969 µg/mL
Kd [3]: 4.28 nM
koff [3]: 0.000682 s⁻¹
kon [3]: 159000 M⁻¹ s⁻¹
Kd [4]: 3.31 nM
koff [4]: 0.000828 s⁻¹
kon [4]: 250000 M⁻¹ s⁻¹
IC50 [5]: 0.528 µg/mL
AUC [6]: 6.87

B6: 224-Hu2 (antibody, V domains shown)
VH: B2 VH
VL: B1 VL with K43S, A44S
notes: Humanized form of #224; also called VH9 + VL7
EC50 [1]: 0.0108 µg/mL
EC50 [2]: 0.00962 µg/mL
Kd [3]: 4.31 nM
koff [3]: 0.000686 s⁻¹
kon [3]: 159000 M⁻¹ s⁻¹
Kd [4]: 2.95 nM
koff [4]: 0.000835 s⁻¹
kon [4]: 283000 M⁻¹ s⁻¹
IC50 [5]: 0.44 µg/mL
AUC [6]: 7.18

Now those with a lower Kd [3], led by results:

EC50 [1]: 0.0122 µg/mL
EC50 [2]: 0.00969 µg/mL
Kd [3]: 4.1 nM
koff [3]: 0.000726 s⁻¹
kon [3]: 177000 M⁻¹ s⁻¹
Kd [4]: 2.97 nM
koff [4]: 0.000847 s⁻¹
kon [4]: 285000 M⁻¹ s⁻¹
IC50 [5]: 0.441 µg/mL
AUC [6]: 6.34
B4: 224-Hu3 (antibody, V domains shown)
VH: B2 VH
VL: B1 VL with W48L, P81A, F84A
notes: Humanized form of #224; also called VH9 + VL8

EC50 [1]: 0.0111 µg/mL
EC50 [2]: 0.00997 µg/mL
Kd [3]: 4.08 nM
koff [3]: 0.000697 s⁻¹
kon [3]: 171000 M⁻¹ s⁻¹
Kd [4]: 2.63 nM
koff [4]: 0.000848 s⁻¹
kon [4]: 323000 M⁻¹ s⁻¹
IC50 [5]: 0.439 µg/mL
AUC [6]: 6.46
B7: 224-Hu6 (antibody, V domains shown)
VH: B1 VH
VL: B1 VL with K43S, A44S
notes: Humanized form of #224; also called VH8 + VL7

EC50 [1]: 0.0173 µg/mL
EC50 [2]: 0.0122 µg/mL
Kd [3]: 0.309 nM
koff [3]: 0.000137 s⁻¹
kon [3]: 445000 M⁻¹ s⁻¹
Kd [4]: 0.626 nM
koff [4]: 0.000381 s⁻¹
kon [4]: 608000 M⁻¹ s⁻¹
IC50 [5]: 0.578 µg/mL
AUC [6]: 7.96
B8: 219-Hu5 (antibody, V domains shown)
VH: QVQLVQSGAEVKKPGSSVKVSCKASGYSFTNYWMNWVRQAPGQGLEWMGMIHPSDTETRLNQNFKDRVTITVDKSTSTAYMELSSLRSEDTAVYYCARGEGLGAARSVSMDYWGQGTLVTVSS
VL: DIQMTQSPSSLSASVGDRVTITCRASQDISNYLNWYQQKPDGTVKLLIYYTAILHSGVPSRFSGSGSGTDYSLTISSLQPEDFATYFCQQGNTLPWTFGQGTKVEIK
notes: also called VH7 + VL5
